According to patent US20180312579A1 (Genentech, published 2018):

T1: FLAG-tagged human RSPO3 (Genentech) (human, UniProt Q9BXY4 22-272)
T1 construct: also called hRSPO3; RSPO3 coated plates; not shown: FLAG tag
T1 sequence: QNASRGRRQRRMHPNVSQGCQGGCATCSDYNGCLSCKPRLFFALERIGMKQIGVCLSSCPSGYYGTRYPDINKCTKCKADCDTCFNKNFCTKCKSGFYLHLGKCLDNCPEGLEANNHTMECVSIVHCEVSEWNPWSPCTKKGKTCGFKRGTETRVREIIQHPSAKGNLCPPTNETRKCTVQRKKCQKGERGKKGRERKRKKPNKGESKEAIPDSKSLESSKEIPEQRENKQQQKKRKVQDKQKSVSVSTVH

T2: human RSPO3 with C-terminal HA tag, stably expressed in 293 cells (human, UniProt Q9BXY4 22-272)
T2 construct: Whole open reading frame expressed in HEK-293 cells (high, medium, low); FFPE pellets; also called hRSPO3; RSPO3 Hi
T2 sequence: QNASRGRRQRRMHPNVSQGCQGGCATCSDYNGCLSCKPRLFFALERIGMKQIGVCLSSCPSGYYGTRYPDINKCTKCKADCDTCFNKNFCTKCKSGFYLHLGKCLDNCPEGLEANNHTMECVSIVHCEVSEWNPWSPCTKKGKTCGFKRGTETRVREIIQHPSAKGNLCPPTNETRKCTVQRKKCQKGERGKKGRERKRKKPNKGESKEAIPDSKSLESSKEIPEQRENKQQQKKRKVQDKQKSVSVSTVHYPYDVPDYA

T3: cynomolgus RSPO3 (cynomolgus, UniProt A0A2K5UTQ7 22-273)
T3 sequence: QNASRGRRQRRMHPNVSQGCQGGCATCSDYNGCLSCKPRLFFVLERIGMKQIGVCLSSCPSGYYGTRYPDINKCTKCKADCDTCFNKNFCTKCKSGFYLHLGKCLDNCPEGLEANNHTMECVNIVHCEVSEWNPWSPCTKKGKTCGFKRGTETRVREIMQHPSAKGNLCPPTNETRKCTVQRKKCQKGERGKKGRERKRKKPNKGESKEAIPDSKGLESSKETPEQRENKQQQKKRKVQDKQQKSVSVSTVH

T4: recombinant human RSPO3 (human, UniProt Q9BXY4 22-272)
T4 sequence: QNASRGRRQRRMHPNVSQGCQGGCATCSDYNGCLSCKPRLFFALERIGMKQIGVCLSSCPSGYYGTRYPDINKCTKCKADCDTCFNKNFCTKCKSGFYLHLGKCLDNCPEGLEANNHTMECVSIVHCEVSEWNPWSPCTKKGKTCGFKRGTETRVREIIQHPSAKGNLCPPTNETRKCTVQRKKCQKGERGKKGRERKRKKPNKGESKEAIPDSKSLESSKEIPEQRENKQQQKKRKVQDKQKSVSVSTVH

T5: mouse RSPO3 (mouse, UniProt Q2TJ95 22-277, limits assumed)
T5 sequence (looked up): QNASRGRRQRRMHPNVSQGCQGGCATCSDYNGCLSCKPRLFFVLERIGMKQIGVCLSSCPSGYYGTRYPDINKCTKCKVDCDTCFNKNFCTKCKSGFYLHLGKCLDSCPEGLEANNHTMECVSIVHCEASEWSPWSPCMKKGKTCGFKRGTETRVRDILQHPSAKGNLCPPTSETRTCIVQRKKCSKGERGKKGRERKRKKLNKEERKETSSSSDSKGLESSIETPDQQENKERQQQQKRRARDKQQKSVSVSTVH


Assays:
[1] = target: T6, human RSPO4 with C-terminal HA tag, stably expressed in 293 cells (human, UniProt Q2I0M5 20-234); assay: IHC, FFPE 293 cell pellet, RSPO4 Hi; - = not significant staining
T6 construct: also called hRSPO4; RSPO4 Hi
T6 sequence (Q2I0M5 other isoform, or with tags, fused parts or gaps limits assumed): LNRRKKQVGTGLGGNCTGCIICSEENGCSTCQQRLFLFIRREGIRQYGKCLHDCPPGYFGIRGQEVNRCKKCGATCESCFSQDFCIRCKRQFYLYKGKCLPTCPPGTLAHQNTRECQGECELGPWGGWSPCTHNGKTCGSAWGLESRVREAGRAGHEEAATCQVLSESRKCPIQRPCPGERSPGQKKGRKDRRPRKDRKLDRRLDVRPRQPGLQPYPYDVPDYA

[2] = target: T1, FLAG-tagged human RSPO3 (Genentech); assay: competitive binding ELISA: titrated against biotinylated RNF43-Flag (RNF43-ECD) binding to plate-coated hRSPO3; signal = bound RNF43, normalized OD
[3] = target: T2, human RSPO3 with C-terminal HA tag, …; assay: IHC, FFPE 293 cell pellet, RSPO3 Hi
recombinant human RSPO2 = recombinant human RSPO2 (human, UniProt Q6UXX9 22-243); assay: cell-based or functional assay
Sequence of recombinant human RSPO2 (Q6UXX9 22-243): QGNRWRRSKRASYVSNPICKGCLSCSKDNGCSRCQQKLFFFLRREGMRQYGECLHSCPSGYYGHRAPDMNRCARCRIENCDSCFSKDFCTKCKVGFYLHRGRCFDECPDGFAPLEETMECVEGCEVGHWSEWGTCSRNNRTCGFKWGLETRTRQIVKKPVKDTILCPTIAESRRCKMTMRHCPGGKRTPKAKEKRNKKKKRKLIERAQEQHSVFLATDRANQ

cynomolgus RSPO2 = cynomolgus RSPO2 (cynomolgus, UniProt G7PCH9 22-243); assay: cell-based or functional assay
Sequence of cynomolgus RSPO2 (G7PCH9 entry or part of it): as the sequence (Q6UXX9 22-243) above, with V160A, L165P, T178A counted along it

cynomolgus RSPO3 [4] = target: T3, cynomolgus RSPO3; assay: cell-based or functional assay
recombinant human RSPO3 [5] = target: T4, recombinant human RSPO3; assay: cell-based or functional assay
mouse RSPO3 [6] = target: T5, mouse RSPO3; assay: cell-based or functional assay
mouse RSPO2 = mouse RSPO2 (mouse, UniProt Q8BFU0 22-205, limits assumed); assay: cell-based or functional assay
Sequence of mouse RSPO2 (Q8BFU0 22-205 limits assumed): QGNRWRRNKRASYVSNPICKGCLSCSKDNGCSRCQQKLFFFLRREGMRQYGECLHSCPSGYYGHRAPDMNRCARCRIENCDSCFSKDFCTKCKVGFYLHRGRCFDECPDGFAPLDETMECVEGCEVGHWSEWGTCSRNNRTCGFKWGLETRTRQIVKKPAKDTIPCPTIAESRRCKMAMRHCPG

[7] = target: T2, human RSPO3 with C-terminal HA tag, …; assay: IHC, FFPE 293 cell pellet, RSPO3 Med
[8] = target: T2, human RSPO3 with C-terminal HA tag, …; assay: IHC, FFPE 293 cell pellet, RSPO3 Low
[9] = target: T7, human RSPO1 with C-terminal HA tag, stably expressed in 293 cells (human, UniProt Q2MKA7 21-263); assay: IHC, FFPE 293 cell pellet, RSPO1 Hi; - = not significant staining
T7 construct: also called hRSPO1; RSPO1 Hi
T7 sequence (Q2MKA7 other isoform, or with tags, fused parts or gaps limits assumed): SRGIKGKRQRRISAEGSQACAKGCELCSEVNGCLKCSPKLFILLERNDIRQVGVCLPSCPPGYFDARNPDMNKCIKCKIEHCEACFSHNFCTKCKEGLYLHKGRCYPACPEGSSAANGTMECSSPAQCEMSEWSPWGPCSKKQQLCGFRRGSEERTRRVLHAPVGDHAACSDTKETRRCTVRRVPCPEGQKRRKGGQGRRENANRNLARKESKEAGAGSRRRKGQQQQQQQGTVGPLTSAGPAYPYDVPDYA

[10] = target: T1, FLAG-tagged human RSPO3 (Genentech); assay: competitive binding ELISA: antibody titrated against LGR4-Fc (LGR4-ECD) binding to plate-coated hRSPO3; signal = bound LGR4-Fc, OD(450/630)/OD no antibody
Description: To measure the activity of anti-RSPO antibodies in blocking the binding of LGR4 and -5 ECDs to RSPOs, MaxiSorp 384-well microwell plates (Thermo Scientific Nunc, Roskilde, Denmark) were coated with 25 ul/well of 0.5 μg/ml hRSPO2 or hRSPO3 (Genentech) in 50 mM carbonate buffer, pH 9.6, overnight at 4° C. Plates were blocked with at 80 ul/well of 0.5% bovine serum albumin, 15 parts per million Proclin 300 in phosphate buffered saline (PBS), pH 7.4, for 1 hour. Serially diluted anti-RSPO antibodies ([…] in […] serial dilution plus buffer blank) containing 0.1 μg/ml LGR4-Fc or 0.015 μg/ml LGR5-Fc in assay buffer (0.5% BSA, 0.05% polysorbate 20, 15 parts per million Proclin 300 in PBS) were added to the plates at 25 ul/well. After a 2-hour incubation, LGR4-Fc and LGR5-Fc bound to the plates were detected using peroxidase labeled goat F(ab′)2 anti-human Fc (Jackson ImmunoResearch, West Grove, Pa.). After a 1 hour incubation, the substrate 3,3′,5,5′-tetramethyl benzidine (Moss Inc., Pasadena, Md.) was added to the plates and the reaction was stopped by adding 1 M phosphoric acid. Plates were washed with PBS, pH 7.4, containing 0.05% tween 20, between steps and all the incubation steps following the coating step were performed at room temperature on an orbital shaker. Absorbance was read at 450 nm on a multiskan Ascent reader (Thermo Scientific, Hudson, N.H.).

cynomolgus RSPO3 [11] = target: T3, cynomolgus RSPO3; assay: SPR, BIAcore T200, cyno RSPO3 immobilized, antibody injected
Description: (§1) The binding affinity of the antibodies in this section was determined by BIAcore™ T200 Format. Briefly, BIAcore™ research grade CMS chips were activated with 1-ethyl-3-(3-dimethylaminopropyl) carbodiimide (EDC) and N-hydroxysuccinimide (NETS) reagents according to the supplier's instructions. huRSPO3 was immobilized to achieve approximately 50 response units (RU) in each flow cell. Unreacted coupling groups were blocked with 1M ethanolamine. For kinetics measurements, Four-fold serial dilutions of variant antibody was injected in HBS-P buffer (0.01M HEPES pH7.4, 0.15M NaCl, 0.005% surfactant P20) at 25° C. with a flow rate of 30 μl/min. Association rates (kon) and dissociation rates (koff) were calculated using a 1:1 Langmuir binding model (BIAcore™ T200 Evaluation Software version 2.0). The equilibrium dissociation constant (Kd) was calculated as the ratio koff/kon.
(§2) The hu5D6v4.1 and the chimeric 5D6 were tested for their ability to bind cyno and mouse RSPO3 as described above except that cyno or murine RSPO3 replaced huRSPO3 in the binding assay. Binding properties for the humanized antibodies are shown below in Table 5.

recombinant human RSPO3 [12] = target: T4, recombinant human RSPO3; assay: SPR, BIAcore T200, huRSPO3 immobilized, antibody injected
Description: as §1

mouse RSPO3 [13] = target: T5, mouse RSPO3; assay: SPR, BIAcore T200, murine RSPO3 immobilized, antibody injected
Description: as §1, §2

| Binder | binding result [1] | IC50 (read off the curve) [2] [µg/mL] | percentage of cells staining [3] [%] | IC50, WNT luciferase reporter, bivalent antibody (recombinant human RSPO2) [nM] | IC50, WNT luciferase reporter, bivalent antibody (cynomolgus RSPO2) [nM] | IC50, WNT luciferase reporter, bivalent antibody (cynomolgus RSPO3 [4]) [nM] | IC50, WNT luciferase reporter, bivalent antibody (recombinant human RSPO3 [5]) [nM] | IC50, WNT luciferase reporter, bivalent antibody (mouse RSPO3 [6]) [nM] | IC50, WNT luciferase reporter, bivalent antibody (mouse RSPO2) [nM] | percentage of cells staining [7] [%] | percentage of cells staining [8] [%] | binding result [9] | IC50 (read off the curve) [10] [µg/mL] | further results |
| --- | --- | --- | --- | --- | --- | --- | --- | --- | --- | --- | --- | --- | --- | --- |
| 6E9 (antibody, V domains shown, also called monoclonal antibody 6E9) VH: QVQLKESGPGLVQPSQSLSITCTVSGFSLTSYGVHWVRQSPGKGLEWLGVIWSGGSTDYNAAFISRLSISKDNSKSQVFFKMNSLQANDTAIYYCARNDGYYYFDYWGQGTTLTVSS VL: DIKMTQSTSSLSASLGDRVTISCRASQDISNYLNWYQQKPDGTVKLLIYYTSRLHSGVPSRFSGSGSGTDYSLTISNLEQEDIATYFCQQGDTLPPAFGGGTKLEIK | no binding | ~0.08 | > 95 | > 500 | > 500 | 6.5 | 5.6 | 140 | > 500 | 70 | 50 | no binding | ~0.1 |  |
| 4H1 (antibody, V domains shown, Hybridoma-derived monoclonal (mice or hamsters immunized with hRSPO2 and/or hRSPO3), cloned, expressed and purified; also called monoclonal antibody 4H1) VH: EVKLVESGGGFVKPGGSLKLSCAASGFTFSNFAMSWVRQSPEKRLEWVAEINNGGNYAYYQDTVTGRFTISRDNAKNTLYLEMSSLRSEDTAMYFCAREDYVNYEAYFAYWGQGTTLTVSS VL: SIVMTQTPLSLPVSLGDQASISCRSSQSIVHSNGNTYLEWYLQKPGQSPKLLIYRISNRFSGVPDRFSGSGSGTDFTLKISRVEAEDLGVYYCFQGSHVPYTFGGGTKLEIK | no binding | ~0.08 | 90 | 6.4 | 2.8 | 0.29 | 0.8 | 0.69 | > 500 | 60 | 30 | no binding | ~0.1 |  |
| 5D6 (antibody, V domains shown, Murine; also called monoclonal antibody 5D6; mu5D6) VH: EVQLQESGPSLVKPSQTLSLTCSVTGDSITSGYWNWIRKFPGNKFEYMGYISYSGKTYQNPSLKSRISITRDTSKNQYHLQLNSVTTEDTATYYCATYYGYGGPWFAYWGQGTLVTVSA VL: DIVLTQSPSSMYASLGERVTITCKASQDIDSYLSWFQQKPGKSPKTLIYLTNRLVDGVPSRFSGSGSGQDYSLTISSLEYEDMGIYYCLHYDEFPLTFGAGTKLEIK | no binding | ~0.1 | > 95 | > 500 | > 500 | 0.0003 | 0.0003 | 0.001 | > 500 | 70 | 30 | no binding | ~0.1 |  |
| chimeric 5D6 (antibody, V domains shown, also called 5D6 chimera) VH: EVQLQESGPSLVKPSQTLSLTCSVTGDSITSGYWNWIRKFPGNKFEYMGYISYSGKTYQNPSLKSRISITRDTSKNQYHLQLNSVTTEDTATYYCATYYGYGGPWFAYWGQGTLVTVSA VL: DIVLTQSPSSMYASLGERVTITCKASQDIDSYLSWFQQKPGKSPKTLIYLTNRLVDGVPSRFSGSGSGQDYSLTISSLEYEDMGIYYCLHYDEFPLTFGAGTKLEIK |  |  |  |  |  |  |  |  |  |  |  |  |  | Kd (cynomolgus RSPO3 [11]): 0.0453 nM; koff (cynomolgus RSPO3 [11]): 0.000224 s⁻¹; kon (cynomolgus RSPO3 [11]): 4.96e+06 M⁻¹ s⁻¹; Kd (recombinant human RSPO3 [12]): 0.0331 nM; koff (recombinant human RSPO3 [12]): 0.000116 s⁻¹; kon (recombinant human RSPO3 [12]): 3.51e+06 M⁻¹ s⁻¹; Kd (mouse RSPO3 [13]): 0.0578 nM; koff (mouse RSPO3 [13]): 0.000237 s⁻¹; kon (mouse RSPO3 [13]): 4.1e+06 M⁻¹ s⁻¹ |
